Data: paper PMC2775144

Columns and labels:
[1] = target: PqsD (Pseudomonas aeruginosa); assay: SEC-MALS
[2] = target: PqsD (Pseudomonas aeruginosa); assay: AUC

For PqsD (enzyme), the stoichiometry N [1] was 2 and the stoichiometry N [2] was 2.
